In patent US10736923B2, “Methods and compositions for generating chondrocyte lineage cells and/or cartilage like tissue” (UNIVERSITY HEALTH NETWORK, priority 2013, dated 2020):

B1: TGFB3: TGFbeta agonist (protein, UniProt P10600 301-412, looked up)
Transforming growth factor …: ALDTNYCFRNLEENCCVRPLYIDFRQDLGWKWVHEPKGYYANFCSGPCPYLRSADTTHSTVLGLYNTLNPEASASPCCVPQDLEPLTILYYVGRTPKVEQLSNMVVKSCKCS

How the values were obtained:
Format in all cases: cell-based, human
hiPSCs = assay: Induction of primitive streak-like mesoderm from hiPSCs, flow cytometry; conditions: hIPSCs induced with Activin A 3 ng/ml, BMP4 1 ng/ml, basic FGF 5 ng/ml and CHIR99061 1 micromolar, day 1 to day 3
Description: FIG. 1. Serum-free differentiation of paraxial mesoderm, chondrocyte progenitors, and cartilage tissues from human pluripotent stem cells (hPSCs). […] On day 4 (T4), mesoderm populations are monitored by the expression of CD56 and PDGFRa on the cell surface by flow cytometry (B). Day 4 mesoderm cells are specified to a paraxial mesoderm fate in monolayer culture by treatment of Dorsomorphin, a BMP inhibitor, a TGFbeta inhibitor SB431542, and bFGF, from days 4 to 6 and bFGF from days 4 to 15 (stage 2). Day 15 paraxial mesoderm cells can generate chondrocyte progenitors by plating in a high density ‘spot’ termed micromass, or by plating onto collagen coated membrane filters (not shown) in the presence of TGFB3 for approximately 10 days (stage 3). Chondrocyte progenitors can be specified to articular chondrocytes or growth plate-like chondrocytes in a cartilage tissue format during stage 4 of differentiation by extended stimulation with TGFB3 (articular) or […] (growth plate-like) for example for 12 weeks. Tissues have been kept in culture for at least 7 months.

fetal chondrocytes = assay: CD73 flow cytometry of fetal chondrocytes in micromass culture; conditions: 9 to 10 weeks of micromass culture
Description: (§1) FIG. 6. CD73 is expressed by articular chondrocytes. Flow cytometric analyses of primary chondrocytes (A) Healthy adult articular chondrocytes and iliac crest GPC-like chondrocytes, (B) Primary fetal chondrocytes, primary (C) or passaged (passage (P)2, D) fetal chondrocytes after 9 to 10 weeks of micromass culture in the presence of TGFB3 or BMP4, and (E) hPSC-derived chondrocytes after 11 weeks derived in the presence of TGFB3 or BMP4. (F) Time course of CD73 and PDGFR-beta cells surface expression on T12 and T15 paraxial mesoderm populations, and micromass cultures treated with TGFB3 after 3 days, 10 days, and 2 weeks. (G) Time course of CD73 expression on TGFB3-treated micromasses after 3 days, 7 days, 10 days, and 2 to 5 weeks.
(§2) Primary (P0) and passaged (P2) fetal chondrocytes can also be cultured in micromass with TGFB3 or BMP4, similar to how hPSC-derived cartilage tissues are formed. TGFB3-treated fetal P0-derived or fetal P2-derived cartilage tissues contain over 93% CD73 positive cells, while BMP4 treatment reduces the percentage of CD73+ cells to 70% and 61% respectively (FIG. 6C,D). CD73 expression is also expressed by over 98% of hPSC-derived cartilage tissues derived with TGFB3-treatment (FIG. 6E). The percentage of CD73+ cells is reduced to only about 57% of cells after BMP4-treatment. Thus, CD73 marks primary healthy adult ACs, a proportion of healthy fetal chondrocytes, fetal chondrocytes or passaged fetal chondrocytes cultured as micromasses in TGFB3, and TGFB3-treated articular chondrocyte-like cells derived from human PSCs.

[1] = tested on: hPSC-derived paraxial mesoderm; assay: Chondrocyte specification in micromass culture with TGFB3 or BMP4 (histology, scatter flow cytometry, qRT-PCR, immunostaining)
Description: FIG. 4. TGFB3 and BMP4 specify chondrocytes and cartilage-like tissues with articular cartilage and growth plate cartilage phenotypes. (A) Micrographs of 5 week old micromasses derived with TGFB3 or BMP4, 20× magnification. (B) Tissue histology (stained with toluidine blue) of 13 week cartilage tissues derived with TGFB3 or BMP4. […] (C) Flow cytometric analysis of forward and side cell scatter parameters of 3 week and 5 week old micromasses. Side scatter indicates cell granularity and forward cell scatter indicates cell size. (D) Comparison of hPSC-derived micromass tissues to fetal primary chondrocyte derived micromass tissues and the developing human fetal femur cartilage. Articular cartilage regions appear to have smaller cells in size compared to growth plate like regions, which contain cells which appear enlarged (hypertrophic). Cartilage tissues in micromass as well as in the fetal femur stain uniformly with the toluidine blue stain (images are pink/purple in color and indicate the presence of cartilage proteins). The BMP4-treated micromass tissues contain a large number of enlarged cells which is similar to the bottom panel of the fetal cartilage which represents a growth plate cartilage. TGFB3 treated micromass cultures contain fewer, if any, enlarged chondrocytes, and appear similar to the upper panel of the fetal cartilage which is the site of articular cartilage. (E) Micrograph using GDF5 instead of BMP4 to generate hypertrophic chondrocytes. (F) Histological analyses of cartilage tissues derived from hiPSCs stained with Toluidine blue after 12 weeks. (G,H) Immunohistochemical staining of hESC-derived cartilage tissues for type II Collagen (G, 8 week tissues), and lubricin (H, 12 week tissues).
FIG. 5. Gene expression analyses of chondrocyte specification in the presence of TGFB3 or BMP4 during stages 3 and 4 of differentiation respectively. General chondrocyte genes Sox9 (A) and collagen 2 (B), hypertrophic genes collagen 10 (C), Runx2 (D), osterix (E) and alkaline phosphatase (F), articular cartilage associated genes lubricin (G) and cartilage intermediate layer protein 2 (CILP2) (H), interzone-related (joint progenitor) genes GDF5 (I), ERG (J) and Wnt9a (K). Expression is copy number relative to TBP (n=3 to 8 biological replicates) and is compared to primary fetal chondrocytes (aged 16 to 19 weeks, n=4), primary healthy adult articular chondrocytes (n=2), and growth plate-like chondrocytes isolated from the iliac crest of an adult (n=1). T15 Mesoderm indicates day 15 hESC-derived paraxial mesoderm (DM+FGF-treated). Error bars indicate s.e.m.
FIG. 8. TGFβ1, TGFβ2, and TGFβ3 generated articular chondrocytes from hPSC-derived paraxial mesoderm. COL2A1, lubricin, and CILP2 gene expression after 12 weeks of micromass culture in the presence of TGF agonists as indicated (10 ng/ml). Values represent copy number mRNA relative to TBP. Error bars indicate s.e.m.
Previous studies have shown that TGFBeta/BMP signaling is required to generate chondrocyte progenitors from paraxial mesoderm. […] Following 10 days of TGFb3 treatment (day 25 total), cultures could be switched to media containing BMP4 or maintained in TGFb3 (stage 4) in order to specify subsets of chondrocytes (articular/non-hypertrophic or growth plate/hypertrophic). To determine the chondrocyte potential of the day 15 mesoderm populations, the cells were plated at high cell density in a 20 microliter volume on tissue culture treated Petri dishes for an hour (micromass) and then the ‘spot’ was submerged/covered with media. In our initial studies, the cells were ‘spotted’ in a media containing 2% fetal bovine serum. However, this short serum exposure can be omitted with no effects on cartilage formation at later stages, making this protocol optionally serum-free. After 2 to 3 days, serum-free media containing TGFb3 is added to the culture to generate chondrocyte progenitors. […]

[2] = tested on: hPSC-derived chondrocytes; assay: CD73 flow cytometry of hPSC-derived cartilage tissues; conditions: hPSC-derived cartilage tissues after 11 weeks
Description: as §1
as §2, with “Thus, CD73 marks primary healthy adult ACs, a proportion of healthy fetal chondrocytes, fetal chondrocytes or passaged fetal chondrocytes cultured as micromasses in TGFB3, and TGFB3-treated articular chondrocyte-like cells derived from human PSCs.” left out

Molecule | expression of cell surface markers CD56, PDGFRalpha and KDR (hiPSCs) | CD73 positive cells (fetal chondrocytes; passaged (P2) fetal chondrocytes) | CD73 positive cells (fetal chondrocytes; primary (P0) fetal chondrocytes) | forward and side scatter of live cells (cell size, granularity) ([1]; 3 week and 5 week micromasses) | chondrocyte morphology ([1]; 5 week old micromasses) | Lubricin protein (immunohistochemistry) ([1]; 12 week micromass tissue) | tissue histology (toluidine blue), chondrocyte size ([1]; 13 week old tissues, GDF5 instead of BMP4) | expression of mature AC genes, such as lubricin and CILP2 ([1]; extended period of time (up to 12 weeks)) | COL2A1 expression ([1]; qRT-PCR, by 2 weeks of culture) | SOX9 expression ([1]; qRT-PCR, by 2 weeks of culture) | CD73 positive cells [2]
Cc1cnc(-c2cnc(NCCNc3ccc(C#N)cn3)nc2-c2ccc(Cl)cc2Cl)[nH]1 [CHIR99061] | also expresses CD56, PDGFRalpha and KDR | – | – | – | – | – | – | – | – | – | –
B1 | – | over 93% | over 93% | tight population of smaller, less granular cells | small fibroblastic-like phenotype | present | small cells (chondrocytes) dispersed evenly throughout the tissue | allows for the expression of mature AC genes | upregulated | upregulated | over 98%
